Data as given in article PMC5472591, “Mechanical stability of talin rod controls cell migration and substrate sensing” (Scientific Reports, 2017).

Target: the molecule itself
Test: SEC-MALS; SEC on Superdex 200 10/300 GL with inline right angle / static light scattering detector; 200 ug protein injected; 50 mM NaH3PO4, 150 mM NaCl pH 7.2; 0.5 ml/min; 20 °C; detector calibrated with the monomeric peak of BSA

B1: talin-1 rod R3 subdomain fragment (amino acids 795-911) 4S mutant, His6-tagged (domain or fragment, mouse)
chain: SSSGPSASGTGAGRYDQATDTSLTVTENSFSSMGDAGEMVRQARILAQATSDLVNAIKADAEGESDLENSRKLLSAAKILADATAKMVEAAKGAAAHPDSEEQQQRSREAAEGSRMATNAAAQNAIKK
notes: 11 residue linker between the N-terminal His6-tag and the talin fragment; talin-1, mouse, R3 subdomain, residues 795-911, with all four destabilizing point mutations; not shown: His6, N-terminal, kept
With B1 as the protein, how does the “stoichiometry N” value read?
Its value is 2.
